Measurements taken from patent publication US20080069777A1 (CBR INSTITUTE FOR BIOMEDICAL RESEARCH, published 2008).

Key:
[1] = molecular target: T1, human wild-type LFA-1 on cells (human, UniProt P20701 26-1170; P05107 23-769); test: inhibition of ICAM binding to human PBMCs; average of four experiments
T1 construct: also called LFA-1 on human PBMCs

rabbit LFA-1 on PBMCs = molecular target: T2, rabbit LFA-1 on PBMCs (rabbit, UniProt A0A5F9C4C9 27-1127; A0A5F9CF43 23-747); test: flow cytometry on PBMCs, no treatment
T2 construct: whole, on cells; also called rabbit PBMCs
Method: Whole blood from healthy animals (rat, sheep, rabbit, dog, rhesus monkey, cynomologus monkey and chimpanzee) were obtained from Valley Biomedical Products and Services, Inc. PBMCs were isolated from whole blood and cultured in low adherent 6-well plates overnight in RPMI 1640 with 10% FBS, 1× Pen/Strep. PBMCs were harvested, washed once with Hanks' Balanced Salt Solution (HBSS) 1×, 20 mM HEPES buffer containing 10 mM EDTA, and then twice with HBS. Cells were resuspended in HBSS at 2×10⁶ cells/ml, 100 μl aliquots per well were added into 96-well plates (Costar round bottom). After spinning down, cell pellets were resuspended in 50 μl activating buffer (HBSS, 10 mM MgCl₂, 2 mM EGTA) or inactivating buffer (HBSS, 2 mM CaCl₂, 2 mM MgCl₂). For certain wells, PMA or DTT was added to a final concentration of 10 ng/ml or 500 μM, respectively. Cells were then incubated at 37° C. for 20 minutes.
Antibodies that recognized CD-11a from the particular species (human, sheep, dog, rat, rabbit) (1:100 dilution) were used as positive controls. […] Cells were incubated at 4° C. for 30 minutes, then washed twice with 220 μl/well HBSS containing 0.05% NaN₃, resuspended in 200 μl/well HBSS and analyzed using the GUAVA EXPRESS™ protocol (Guava Technologies, Inc., Hayward Calif.).

[2] = molecular target: T3, mouse LFA-1 on the EL4 cell line (mouse, UniProt P24063 24-1162; P11835 24-771); test: binding to EL4 cell line, no treatment
T3 construct: whole, on cells; also called Mouse EL4 Cell line
T3 sequence (P24063 24-1162, chain 1 of 2): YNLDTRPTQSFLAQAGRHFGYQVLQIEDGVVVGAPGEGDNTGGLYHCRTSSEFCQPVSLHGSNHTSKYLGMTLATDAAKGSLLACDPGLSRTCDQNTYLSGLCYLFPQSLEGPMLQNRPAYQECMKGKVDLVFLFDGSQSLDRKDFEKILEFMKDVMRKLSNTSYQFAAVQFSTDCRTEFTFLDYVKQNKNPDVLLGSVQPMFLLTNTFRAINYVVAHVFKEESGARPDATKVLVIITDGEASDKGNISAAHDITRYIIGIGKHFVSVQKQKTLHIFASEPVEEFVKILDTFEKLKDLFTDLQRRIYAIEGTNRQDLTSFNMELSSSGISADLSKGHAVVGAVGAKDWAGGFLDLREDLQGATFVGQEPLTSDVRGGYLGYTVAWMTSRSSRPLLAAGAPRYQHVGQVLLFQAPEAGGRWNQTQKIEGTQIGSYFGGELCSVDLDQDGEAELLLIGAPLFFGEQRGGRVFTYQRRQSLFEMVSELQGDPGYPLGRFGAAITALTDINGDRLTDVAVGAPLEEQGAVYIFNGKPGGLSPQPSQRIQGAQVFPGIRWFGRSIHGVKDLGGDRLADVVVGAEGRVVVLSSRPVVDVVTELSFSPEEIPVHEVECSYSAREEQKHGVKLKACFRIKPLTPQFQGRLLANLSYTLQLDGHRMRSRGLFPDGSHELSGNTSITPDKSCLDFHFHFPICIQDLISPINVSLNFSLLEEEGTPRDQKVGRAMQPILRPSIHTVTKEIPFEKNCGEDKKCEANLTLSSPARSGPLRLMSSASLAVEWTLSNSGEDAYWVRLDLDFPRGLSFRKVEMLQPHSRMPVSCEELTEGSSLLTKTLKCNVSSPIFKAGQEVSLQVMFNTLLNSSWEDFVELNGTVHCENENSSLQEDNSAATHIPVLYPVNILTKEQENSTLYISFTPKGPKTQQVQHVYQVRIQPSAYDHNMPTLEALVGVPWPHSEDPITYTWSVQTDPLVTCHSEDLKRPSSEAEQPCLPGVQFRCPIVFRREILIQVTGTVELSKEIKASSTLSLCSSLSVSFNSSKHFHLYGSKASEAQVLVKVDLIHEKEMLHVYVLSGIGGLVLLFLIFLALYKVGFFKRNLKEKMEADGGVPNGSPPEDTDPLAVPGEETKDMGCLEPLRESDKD
T3 sequence (P11835 24-771, chain 2 of 2): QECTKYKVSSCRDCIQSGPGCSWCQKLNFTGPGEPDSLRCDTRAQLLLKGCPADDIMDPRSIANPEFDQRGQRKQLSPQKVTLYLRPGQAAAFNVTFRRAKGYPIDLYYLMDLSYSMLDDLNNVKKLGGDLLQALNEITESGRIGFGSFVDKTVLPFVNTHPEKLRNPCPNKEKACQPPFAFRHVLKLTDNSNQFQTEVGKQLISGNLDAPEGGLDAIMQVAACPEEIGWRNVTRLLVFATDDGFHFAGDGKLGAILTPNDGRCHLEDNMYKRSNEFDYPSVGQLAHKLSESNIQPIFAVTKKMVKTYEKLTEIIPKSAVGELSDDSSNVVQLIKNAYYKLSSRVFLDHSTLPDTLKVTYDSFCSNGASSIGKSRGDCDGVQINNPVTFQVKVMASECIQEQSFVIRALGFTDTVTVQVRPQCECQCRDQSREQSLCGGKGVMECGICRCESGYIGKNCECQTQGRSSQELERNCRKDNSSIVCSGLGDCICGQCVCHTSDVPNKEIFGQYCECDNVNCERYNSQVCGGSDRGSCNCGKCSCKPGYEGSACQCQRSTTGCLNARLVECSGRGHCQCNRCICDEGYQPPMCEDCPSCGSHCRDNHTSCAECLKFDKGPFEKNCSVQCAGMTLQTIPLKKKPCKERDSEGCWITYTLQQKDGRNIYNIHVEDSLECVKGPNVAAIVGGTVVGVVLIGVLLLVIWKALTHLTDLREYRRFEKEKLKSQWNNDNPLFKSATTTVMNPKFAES

T1 sequence (P20701 other isoform, or with tags, fused parts or gaps limits assumed, chain 1 of 2): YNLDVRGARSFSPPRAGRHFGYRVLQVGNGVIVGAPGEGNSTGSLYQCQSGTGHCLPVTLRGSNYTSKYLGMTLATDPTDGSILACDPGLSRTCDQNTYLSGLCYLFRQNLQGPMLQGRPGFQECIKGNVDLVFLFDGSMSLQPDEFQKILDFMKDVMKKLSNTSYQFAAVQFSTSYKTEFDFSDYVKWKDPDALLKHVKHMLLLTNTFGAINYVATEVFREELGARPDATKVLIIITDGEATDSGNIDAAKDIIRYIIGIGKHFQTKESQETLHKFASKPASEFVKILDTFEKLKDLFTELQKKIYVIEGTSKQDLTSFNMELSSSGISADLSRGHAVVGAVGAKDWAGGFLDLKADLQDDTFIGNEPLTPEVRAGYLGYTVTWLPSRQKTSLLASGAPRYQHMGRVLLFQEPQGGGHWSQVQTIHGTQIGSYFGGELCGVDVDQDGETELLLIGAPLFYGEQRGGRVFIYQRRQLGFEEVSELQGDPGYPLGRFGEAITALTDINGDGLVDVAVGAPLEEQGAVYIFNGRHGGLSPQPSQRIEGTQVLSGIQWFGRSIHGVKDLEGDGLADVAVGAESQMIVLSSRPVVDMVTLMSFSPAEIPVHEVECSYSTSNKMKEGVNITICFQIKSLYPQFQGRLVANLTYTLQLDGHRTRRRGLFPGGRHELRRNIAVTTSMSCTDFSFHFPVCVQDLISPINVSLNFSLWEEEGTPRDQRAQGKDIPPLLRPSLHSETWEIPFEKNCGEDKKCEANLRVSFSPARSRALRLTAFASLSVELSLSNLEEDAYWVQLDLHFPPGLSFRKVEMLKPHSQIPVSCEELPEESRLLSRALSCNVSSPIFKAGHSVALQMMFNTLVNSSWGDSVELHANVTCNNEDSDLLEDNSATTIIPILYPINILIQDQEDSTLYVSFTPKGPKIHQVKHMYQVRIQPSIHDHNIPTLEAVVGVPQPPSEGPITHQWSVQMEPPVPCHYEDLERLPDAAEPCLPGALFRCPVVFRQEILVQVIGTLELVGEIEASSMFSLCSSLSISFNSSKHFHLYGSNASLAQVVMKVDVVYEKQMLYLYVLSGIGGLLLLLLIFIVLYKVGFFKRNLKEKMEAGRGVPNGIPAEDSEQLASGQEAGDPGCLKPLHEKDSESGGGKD
T1 sequence (P05107 other isoform, or with tags, fused parts or gaps limits assumed, chain 2 of 2): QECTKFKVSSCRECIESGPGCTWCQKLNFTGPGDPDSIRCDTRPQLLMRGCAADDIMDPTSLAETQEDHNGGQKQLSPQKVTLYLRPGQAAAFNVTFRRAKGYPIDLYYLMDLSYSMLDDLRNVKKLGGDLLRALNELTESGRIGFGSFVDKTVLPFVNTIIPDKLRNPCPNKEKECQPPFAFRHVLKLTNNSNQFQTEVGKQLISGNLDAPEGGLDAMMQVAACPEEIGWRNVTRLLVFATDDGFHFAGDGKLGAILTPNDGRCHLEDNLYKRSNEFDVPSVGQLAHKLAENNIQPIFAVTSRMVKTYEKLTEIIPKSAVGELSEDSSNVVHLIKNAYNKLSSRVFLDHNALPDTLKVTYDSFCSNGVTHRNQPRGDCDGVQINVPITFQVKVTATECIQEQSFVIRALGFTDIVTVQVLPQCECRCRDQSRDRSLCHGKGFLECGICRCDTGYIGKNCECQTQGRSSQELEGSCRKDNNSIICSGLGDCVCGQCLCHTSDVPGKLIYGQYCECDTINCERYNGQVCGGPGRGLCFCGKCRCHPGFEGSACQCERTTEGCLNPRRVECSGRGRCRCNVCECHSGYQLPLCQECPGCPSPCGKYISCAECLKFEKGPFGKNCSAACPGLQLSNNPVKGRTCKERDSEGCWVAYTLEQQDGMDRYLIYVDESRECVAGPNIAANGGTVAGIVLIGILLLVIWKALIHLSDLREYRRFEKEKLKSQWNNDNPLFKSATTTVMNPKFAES

| IC50 [1] | binding result (rabbit LFA-1 on PBMCs) | binding result [2] | Binder |
| --- | --- | --- | --- |
| 0.54 nM | – | – | D2-57 IgG1 (antibody, V domains shown) VH: EVQLLESGGGLVQPGGSLRLSCAASGFTFSRYVMWWVRQAPGKGLEWVSYIWPSGGNTYYADSVKGRFTISRDNSKNTLYLQMNSLRAEDTAVYYCASSYDFWSNAFDIWGQGTMVTVSS VL: DIQMTQSPSSLSASVGDRVTITCRASQSIGSYLNWYQQKTGKAPKALIYAASSLQSGVPSRFSGSGSGTDFTLTISSLQLEDFATYYCQQSYSTPSFGQGTKVEIKR |
| – | no binding (tested: 10 µg/ml) | no binding | DX-2001 (germlined variant of D2-57, IgG4) (antibody, V domains shown) VH: EVQLLESGGGLVQPGGSLRLSCAASGFTFSRYVMWWVRQAPGKGLEWVSYIWPSGGNTYYADSVKGRFTISRDNSKNTLYLQMNSLRAEDTAVYYCASSYDFWSNAFDIWGQGTMVTVSS VL: not shown |
